# Assay: yeast display, Sf9 membrane polyspecificity reagent, FACS + sequencing; frameworks hold sequencing errors
# Method in brief: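 Using colony PCR, genes from sorted yeast display clones were amplified, then sequenced on MiSeq at 2 × 250 and filtered by CDR length. The clones had been stained with 10% biotinylated, detergent-solubilized Sf9 membrane reagent for 1 hour at 4 °C and sorted by FACS into low and high (top ~1%) gates on anti-HA and streptavidin fluorescence. Polyreactivity labels come from the gate of origin.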
row,Sequence,polyreactivity (PSR sort gate)
1,QVQLVESGGGLVQAGGSLRLSCAASGSIFPSNAMGWYRQAPGKERELVAAISSSGGRTYYADSVKGRFTISRDNAKNTVYLQMNSLKPEDTAVYYCAAKYTVYGVGYYYWGQGTQVTVSS,high polyreactivity
2,QVQLQESGGGLVLAGGSLRLSCSASGNISVYGSMGWYRQAPGKEREFVATIDPGTNTNYADSVKDRFTISRDNAKNTVYLQMNTRKPEDTAVYYCAVEAGSDWPYRYWGQGTEVTVSS,low polyreactivity
3,QVQLVESGGGLVQAGGSLRLSCAASGSTFDRNVMGWYRQAPGKERELVAAISRVSSTNYADSVKGRFTISRDNAKNTVYLQMNSLKPEDTAVYYFAADGAGSIMNYWGQGTQVTVSS,low polyreactivity
4,QFQLVESGGGLVQAGGSLRLSCAASGRIFIIYAMGWYRQAPGKERELVAAINRGATTNFADSVKGRFTISRDNAKNTVYLQMNSLKPEDTAVYYCAACSGPSLSRFLRYANDYWGQGTQVTLSS,high polyreactivity
5,QVQLVESGGGLVQAGGSLRLSCAASGSIGVYAMGWYRQSPGKERELVAGISRSGSSTFFADSVKGRFTISRDNAKNTVYLQMNSLKPEDTAVYYCTAYTYNYRQGSEYYYWGQGTQVTVSS,high polyreactivity
6,QVQLVESGGGLVQAGGSLRLSCAASGFTFVNYAMGWYRQAPWKERELVAAIRRSGSRTYYADSVKGRFTISRDIAKNTVYLQMNCLNPEDTAVYYCAAVWYRLYGYWGQGTQVTVSS,low polyreactivity
7,QVQLVESGGGLVQAGGSLRLSCAASGSIFPYYALGRYRQAPGKERELVADITSSGGSTYYADSVKGRFTISRDNAKNTVYLQMNSLKPEDTAVYYCAALYWFYVYPFTEYDYWGQGTQVTVSS,low polyreactivity
8,QDQHVESGGGLVQARGTLRLSCAASGFTFYHYAMGWSRQAPGTERELVAGISHRGASTYYADSVKGRFTISRDNAKNTVYLQMNSLKPEDTAVYYCNAYRPYRNHALIGDGYWGQGTQVTVSS,high polyreactivity
9,QVQLVESGGGLVQAGGSLRLSCAASGGIFRWYTMGWYRPAPGKERELVAAITGSGGRTFYADSVKGRFTISRDNAKNTVYLQMNSLKPEDTAVYYCAKPQAQVGGYWGYDYWGQGTQVTVSS,high polyreactivity
10,QVQLLDSGGGLVQAGGSLRLSCAASGRTIYYYAMGWYRQAPGKEREFVAAIYWHGGSTYYAESVKGRFTISRDNAKNTVYFQMNSLKPEDTAVYYCAAERYDRVGFDYWGQGTQVTVSS,low polyreactivity
11,QVQLVESGGGLVQAGGSLRLSCAASGYNFRQYAMGWYRQATGKEREFVAAISQTGGSTYYADSVKGRFTISRDNANNTVYLQMNSLKPEDTAVYYCAARYRGQRYRKLDYWGQGTQVTVSS,high polyreactivity
12,QVQLVETGGGLVQAGGSLRLSCAASGSTFFINAMGWYRQAPGKERELVAAITSTDSTTYADSVKGRFTISRDNAKNTVYLQMNSLKPEDTAVYYCAKESIGQDPVSGAWARHEYDYWGQGTQVTVSS,low polyreactivity
13,QVQLVESGGGLVQAGGSLRLSCAASGSTFCYSVMGWYRQEPRTEREFVAAISTRGDSTYYADSVKGRFTLSRDNAKNTVYLQMNSLKPEDTAVYYCAKSRQSCGRVRLDYWGQGTQVTVSS,low polyreactivity
14,QDQLVESGGGLVQAGGSLRLSCAASGRTIFRNAMGWYRQAPGKERELVAAITWSGGSTYYADSVKGRFTISRDNAKNTVYLQMNSLKPEDTAVYYCNRKRYGSDYEYWGQGTQVTVSS,low polyreactivity
15,QVQLVESGGGLVQAGGSLRLSCAVSGRIFRRNVMGWYRQAPGKERELVAGSSYSGDSTYYADSVKGRFTISRDNAKNTVYLQMNRLKPEDTAVYYCAAALAHYRGMYYWGQGTQVTVSS,high polyreactivity
16,QVQLVESGGGLVQAGGSLRLSCAASGFTFTSYTMGWYRQAPGKERELVAGISTNGGTTYYADSVKGRFTISRDNAKNTVYLQMNSLKPEDTAVYYCNAKRKYGRFPKKYYYWGQGTQVTVSS,high polyreactivity
17,QVQLEESGGGLVQAGGSLRLSCAASGSIFWGYAIGWYRQAPGKERELVAAISNTGSTNYADSVKGRFTISRDNAKNTVYLQMNSLKPEDTAVYYCNASYTYGEMDYWGQGTQVTVSS,low polyreactivity
18,QVQLVESGGGLVQAGGSLRLSCAASGFTFPRNAMGWYRQAPGKERELVAAISRGGGGTYYADSVKGRFTISRDNAKNTVYLQMNSLKPEDTAVYYCNARSVVREFNYWGQGTQVTVSS,high polyreactivity
19,QVQLVESGGGLVQAGGSLRLSCAASGHTFLEYAMGWYRQAPGKESELVASISFSAGSTYYADSVKGRFTISRDNAKNTVYLQLNSLKPEDTALYYCNAEYLYDYYYYWPYWFEFDYWGQGTQVTVSS,high polyreactivity
20,QVQLVESGGGLVQAGGILRLSCAASGSTFGRYAMGWYRQAPGKVRELVAAISRRGGSTYYADSVKGRFTISRDNAKKTVYLQMYSLKRQDTAVYYCGADDVRTTGCHFDYWGQGTEVTVSS,high polyreactivity
21,QVQLVESGGGLVQAGGSLRLSCAASGSTFNHYAMGWYRQAPGKERELVAAITKSGGSTYADSVKGRFTISRDNAKNTVYLQMNSLKPEDTAVYYCAAGRRKYGTKGRGDYWGQGTQVTVSS,low polyreactivity
22,QVQLVESGGGLVQAGGSLRIICAASGRTFSYYAMGWYRQAPGKERELVAVITSSGGSTSYADSVKGRFTISRDNAKNTVYLQMKSLKPEDTAVYYCAADPLAVSWAYYLFGVDYWGHGTQVTVSS,high polyreactivity

row,Sequence,polyreactivity (PSR sort gate)
1,QVQLVESGGGLVQAGGSLRLSCAASGRIFYGYAMGWYRQAPGKERELVASISRRGSSTYYADSVKGRFTISRDNAKNTVYLQMNSLKPEDTAVYYCAKYTVQYAISHYDYWGQGTQVTVSS,high polyreactivity
2,QVQLVESGGGLVQAGGSLRLSCAASGRIFPKYAMGWYRHAPGTERELVGAISGSSGSTYYADSVKGRFTISRDNAKNTVYLQMNSLKPDDTAVYYCAARRYRISKTSGYCGQGTQVTVSS,high polyreactivity
3,QVQLVESGGGLVQAGGSLRLSCAASGRTFVLYTMGRYRQAPGKERELVAVGSTYYADSVKGRFTISRDNAKNTVYLQMNSLKPEDTAVYYCNKPGNYVWRRSWDFDYWGQGTQVTVSS,high polyreactivity
4,QVQLVESGGGLVQAGCSLRISCADSGRTFDEYAMGWYRQAPGKERELVAAISGSAGSTYYADSVKGRFTISRDNAKNSVYLQMNSLKPEDTAVYYCNAEVYGELYYWGQGTQVTVSS,low polyreactivity
5,QVQLVESGGGLVQAGGSLRLSCAASGFIFTRYVMGWYRQAAGKERELVAAISRIGASTYYADSVKGRFTISRDNAKNNFYLQMNCLNPEATAVYYCKVVSGGYCEYDYWGHGTQVTVSS,high polyreactivity
6,QVQLVESGGGLVQAGGSLRLRSAASGSIYNQNAMGWYRQAHGNRELVAAITNGVSTDYADSVKGRFTISRDNAKNTVYLKLNSLKPEDTAVYYCNAGNYQYPSFEYDYWGLGTQVTVSS,low polyreactivity
7,QVQLVESGGGLVQAGGSLPLSCAASGSILYFYAMGWYRQSPGKERELVAAISWTGGSTYYADSVKGRFTISRDNAKNTVYLQMNSLKPEDTAVYYCAAELWYEGYDYWGQGTQVTVSS,high polyreactivity
8,QVQLVESGGGLVQAGGSLRLSCAASGSIFDGYAMGGSRQAPGNERELLAAISSGTSTNYADSVKGRFTISRDNAKNTVYLQMNSLKPEDTAVYYCNAYPPYLYATYDYWGQGTQVTVSS,low polyreactivity
9,QVQLVESGGGLVQAGGSLPLSSAASGITLRYYAMRWYRQAPGKERELVAAMSGRGGGTYYADSVKGRFTISRDNAKNTVYLQMNSLKPEDTAVYYCNAVGQQQVEYEYWGQGTQVTVSS,high polyreactivity
10,QVQLVESGGGLVQAGGSLRLSCAASGYIFFGNAMGWYRQAPGKERDLVAAIRWRGTSTYYADSVKGRFTISRDNAKNTVTFLMNSLKPEDSAVYYCAADVVRSNFYGTFLYDYEYWGKGTQVTVSS,low polyreactivity
11,QVQLVESGGGLVQAGGSLRLSCAASGSIFFEYAMGWYRQAPGKERELVASINRGGGSTYYADSVKGRFTISRDNAKNTVYLQMNSLIPEDTAVYYCAAQCKYRQSYLDYYWGQGTQVTVSS,low polyreactivity
12,QVQLVESGGGLVQAGGSLRLSCAASGSIFGGNAMGWYRQAAGKERELVAAITQSGGRTYYADSVKGRFTISRDNAKNTVYLQMNSLKPEDTAVYYCNRVYKSQTTDSFPLSYYYWGQGTQVTVSS,high polyreactivity
13,QVQLVESGGGLVQAGGSLRLSCAASGYTYPYYTMGWYRQAPGKERELVAAISSGGRTKYADSVKGRFTISRDNAKNTVYLQMNSLKPEDTAVYYCAKSGNYRTGRFDYWGQGTQVTVSS,high polyreactivity
14,QVQLVESGGGLVQAGGSLRLSCAASGSIFNYNAMGWYRQAPGKERELVAAITWSGGTTYYADSVKGRFTISRDNAKNTVYLQMNSLIPEDTAVYYCAAEWWDGSYPLYEYYYWGQGTQVNVSS,high polyreactivity
15,QVQLVESGGGVVQAGGRLRLSCAASGRILPFYAMGWYRQETGKERELVPGITTGTSTTYADSVNGRFTISRDNAKNTVYFQMHSLKPEDTAVYYCNTLVVPYTDFNTSYNVDYWGQGTQVTVSS,low polyreactivity
16,QVQLVESGGGLVQAGGSLRLSCAASGRTFPRYAMGWYRQAPGKERELVAAISVRAGITYYADSVKGRFTISRDNAKNTVYLQMNSLKPEDTAVYYCAKSVRYPASDYWGQGTQVTVSS,low polyreactivity
17,QVQLVESGGGLVQAGGSLRLSCAASGIIFLENAMGWYRQAPGKERELVAGISSGGNTNYADSVKGRFTISRDNAKNTVYLQMNSLKPEDTAVYYCNTDWYLPRYVLLGYFSGTEDYWGQGTQVTVSS,low polyreactivity
18,QVQVVESGGGLVQAGGSLRLSCAASGRILYPYTMGWYRQAPGKERELVAAISYSGGRTYYADSVKGRFTISRDNAKNTVYLQMNRLKPEDTAVYYFNAVFRVRGASQFDYWGQGTQVTVSS,high polyreactivity
19,QVQLVESGGGLVQAGGSLRLSCAASGSIFDRNAMGWYRQAPGKERELVAAISVSGGSTYYADSVKGRFTISRDNAKNTVYLQMNSLKPEDTAVYYCAKAGRYANLPYGYWGQGTQVTVSS,high polyreactivity
20,QVQLVESGGALVQAGGSLRLSCAASGFTFNVYAMGWYRPAPGKERELVAAITSSGGSTYYADSVKGRFTISRDNAKNTVYLQMNSLIPDDTAVYYCNVVRDWLLYRGSYIVKFDYWGQGTQVTVSS,high polyreactivity
21,QVQLVESGGGLVQAGRRLRLSCAASGSTFGYYAMGWYRQAPGKERELVAAITSGATTNYADSVKGRFTISRDNAKNTVYLQMNSLKPEDTAVYYCAAGFQTRTPLNEFDNWGQGTQVTVSS,low polyreactivity

# — the nanobody polyreactivity screen of Harvey et al. (2022)
